Experimental data as given in article PMC2615606.

How the values were obtained:
[1] = biological target: T1, Sp1 (rhSp1) (UniProt P08047 1-785); assay: competition
[2] = biological target: T1, Sp1 (rhSp1); assay: EMSA

T1 sequence (P08047 whole entry): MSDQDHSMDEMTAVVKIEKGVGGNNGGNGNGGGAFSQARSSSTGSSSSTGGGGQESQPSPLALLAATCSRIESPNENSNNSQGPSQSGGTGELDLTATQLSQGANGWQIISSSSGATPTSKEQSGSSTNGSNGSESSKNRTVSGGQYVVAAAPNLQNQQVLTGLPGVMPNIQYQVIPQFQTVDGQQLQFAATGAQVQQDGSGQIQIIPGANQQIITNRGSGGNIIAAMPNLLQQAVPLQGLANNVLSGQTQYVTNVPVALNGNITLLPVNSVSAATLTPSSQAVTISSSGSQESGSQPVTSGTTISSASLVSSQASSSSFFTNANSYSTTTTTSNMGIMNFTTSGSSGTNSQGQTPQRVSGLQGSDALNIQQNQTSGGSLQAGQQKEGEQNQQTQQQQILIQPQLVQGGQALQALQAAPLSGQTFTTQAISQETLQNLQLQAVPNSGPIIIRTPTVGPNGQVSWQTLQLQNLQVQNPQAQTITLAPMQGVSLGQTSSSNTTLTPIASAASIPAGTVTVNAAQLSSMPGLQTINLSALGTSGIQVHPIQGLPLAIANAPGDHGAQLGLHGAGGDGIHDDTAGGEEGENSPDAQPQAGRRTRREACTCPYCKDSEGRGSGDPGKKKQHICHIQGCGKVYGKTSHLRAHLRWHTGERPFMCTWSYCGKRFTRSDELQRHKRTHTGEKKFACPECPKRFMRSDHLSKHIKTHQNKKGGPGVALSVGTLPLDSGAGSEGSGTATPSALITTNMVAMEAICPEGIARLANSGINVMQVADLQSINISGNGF

Binder	binding result [1]	binding result [2]
DUT Sp1Δ (dsDNA) DNA 1: GTTCGGTGGGTGGTTCGGGGCTGGCTTG DNA 2: CAAGCCAGCCCCGAACCACCCACCGAAC	no binding	–
DUT Sp1 (-64 to -91) (dsDNA) DNA 1: GGGCGGTGGGTGGGGCGGGGCTGGCGGG DNA 2: CCCGCCAGCCCCGCCCCACCCACCGCCC	–	binds
